Measurements reported in article PMC2884070 (Journal of hepatology, 2010).

B1: full-length NS5A H77-His (genotype 1a) (natural protein)
chain: SGSWLRDIWDWICEVLSDFKTWLKAKLMPQLPGIPFVSCQRGYRGVWRGDGIMHTRCHCGAEITGHVKNGTMRIVGPRTCKNMWSGTFFINAYTTGPCTPLPAPNYKFALWRVSAEEYVEIRRVGDFHYVSGMTTDNLKCPCQIPSPEFFTELDGVRLHRFAPPCKPLLREEVSFRVGLHEYPVGSQLPCEPEPDVAVLTSMLTDPSHITAEAAGRRLARGSPPSMASSSASQLSAPSLKATCTANHDSPDAELIEANLLWRQEMGGNITRVESENKVVILDSFDPLVAEEDEREVSVPAEILRKSRRFAPALPVWARPDYNPLLVETWKKPDYEPPVVHGCPLPPPRSPPVPPPRKKRTVVLTESTLPTALAELATKSFGSSSTSGITGDNTTTSSEPAPSGCPPDSDVESYSSMPPLEGEPGDPDLSDGSWSTVSSGADTEDVVCC
B2: full-length NS5A Con1-His (genotype 1b) (natural protein)
chain: SGSWLRDVWDWICTVLTDFKTWLQSKLLPRLPGVPFFSCQRGYKGVWRGDGIMQTTCPCGAQITGHVKNGSMRIVGPRTCSNTWHGTFPINAYTTGPCTPSPAPNYSRALWRVAAEEYVEVTRVGDFHYVTGMTTDNVKCPCQVPAPEFFTEVDGVRLHRYAPACKPLLREEVTFLVGLNQYLVGSQLPCEPEPDVAVLTSMLTDPSHITAETAKRRLARGSPPSLASSSASQLSAPSLKATCTTRHDSPDADLIEANLLWRQEMGGNITRVESENKVVILDSFEPLQAEEDEREVSVPAEILRRSRKFPRAMPIWARPDYNPPLLESWKDPDYVPPVVHGCPLPPAKAPPIPPPRRKRTVVLSESTVSSALAELATKTFGSSESSAVDSGTATASPDQPSDDGDAGSDVESYSSMPPLEGEPGDPDLSDGSWSTVSEEASEDVVCC
B3: full-length NS5A JFH-1-His (genotype 2a) (natural protein)
chain: SGSWLRDVWDWVCTILTDFKNWLTSKLFPKLPGLPFISCQKGYKGVWAGTGIMTTRCPCGANISGNVRLGSMRITGPKTCMNTWQGTFPINCYTEGQCAPKPPTNYKTAIWRVAASEYAEVTQHGSYSYVTGLTTDNLKIPCQLPSPEFFSWVDGVQIHRFAPTPKPFFRDEVSFCVGLNSYAVGSQLPCEPEPDADVLRSMLTDPPHITAETAARRLARGSPPSEASSSVSQLSAPSLRATCTTHSNTYDVDMVDANLLMEGGVAQTEPESRVPVLDFLEPMAEEESDLEPSIPSECMLPRSGFPRALPAWARPDYNPPLVESWRRPDYQPPTVAGCALPPPKKAPTPPPRRRRTVGLSESTISEALQQLAIKTFGQPPSSGDAGSSTGAGAAESGGPTSPGEPAPSETGSASSMPPLEGEPGDPDLESDQVELQPPPQGGGVAPGSGSGSWSTCSEEDDTTVCC
B4: domain 2 of JFH-1 NS5A (domain or fragment)
chain: NTYDVDMVDANLLMEGGVAQTEPESRVPVLDFLEPMAEEESDLEPSIPSECMLPRSGFPRALPAWARPDYNPPLVESWRRPDYQPPTVAGCALP

target: GST-CypA (cyclophilin A) (human, UniProt P62937 1-165); assay: radioligand binding

| Binder | Kd [µM] |
| --- | --- |
| B1 | 131 |
| B2 | 126 |
| B3 | 108 |
| B4 | 69 |
